According to US20170190753A1 (LABORATOIRE FRANCAIS DU FRACTIONNEMENT ET DES …, published 2017):

The binders below were run against C3 convertase complex (UniProt P01024 23-1663; P00751 260-764) (assay: cell-based or functional assay).
Wherever C3 convertase activity % of the control is given: test concentration or dose not given here.

Chain of C3 convertase complex (P01024 23-1663, chain 1 of 2): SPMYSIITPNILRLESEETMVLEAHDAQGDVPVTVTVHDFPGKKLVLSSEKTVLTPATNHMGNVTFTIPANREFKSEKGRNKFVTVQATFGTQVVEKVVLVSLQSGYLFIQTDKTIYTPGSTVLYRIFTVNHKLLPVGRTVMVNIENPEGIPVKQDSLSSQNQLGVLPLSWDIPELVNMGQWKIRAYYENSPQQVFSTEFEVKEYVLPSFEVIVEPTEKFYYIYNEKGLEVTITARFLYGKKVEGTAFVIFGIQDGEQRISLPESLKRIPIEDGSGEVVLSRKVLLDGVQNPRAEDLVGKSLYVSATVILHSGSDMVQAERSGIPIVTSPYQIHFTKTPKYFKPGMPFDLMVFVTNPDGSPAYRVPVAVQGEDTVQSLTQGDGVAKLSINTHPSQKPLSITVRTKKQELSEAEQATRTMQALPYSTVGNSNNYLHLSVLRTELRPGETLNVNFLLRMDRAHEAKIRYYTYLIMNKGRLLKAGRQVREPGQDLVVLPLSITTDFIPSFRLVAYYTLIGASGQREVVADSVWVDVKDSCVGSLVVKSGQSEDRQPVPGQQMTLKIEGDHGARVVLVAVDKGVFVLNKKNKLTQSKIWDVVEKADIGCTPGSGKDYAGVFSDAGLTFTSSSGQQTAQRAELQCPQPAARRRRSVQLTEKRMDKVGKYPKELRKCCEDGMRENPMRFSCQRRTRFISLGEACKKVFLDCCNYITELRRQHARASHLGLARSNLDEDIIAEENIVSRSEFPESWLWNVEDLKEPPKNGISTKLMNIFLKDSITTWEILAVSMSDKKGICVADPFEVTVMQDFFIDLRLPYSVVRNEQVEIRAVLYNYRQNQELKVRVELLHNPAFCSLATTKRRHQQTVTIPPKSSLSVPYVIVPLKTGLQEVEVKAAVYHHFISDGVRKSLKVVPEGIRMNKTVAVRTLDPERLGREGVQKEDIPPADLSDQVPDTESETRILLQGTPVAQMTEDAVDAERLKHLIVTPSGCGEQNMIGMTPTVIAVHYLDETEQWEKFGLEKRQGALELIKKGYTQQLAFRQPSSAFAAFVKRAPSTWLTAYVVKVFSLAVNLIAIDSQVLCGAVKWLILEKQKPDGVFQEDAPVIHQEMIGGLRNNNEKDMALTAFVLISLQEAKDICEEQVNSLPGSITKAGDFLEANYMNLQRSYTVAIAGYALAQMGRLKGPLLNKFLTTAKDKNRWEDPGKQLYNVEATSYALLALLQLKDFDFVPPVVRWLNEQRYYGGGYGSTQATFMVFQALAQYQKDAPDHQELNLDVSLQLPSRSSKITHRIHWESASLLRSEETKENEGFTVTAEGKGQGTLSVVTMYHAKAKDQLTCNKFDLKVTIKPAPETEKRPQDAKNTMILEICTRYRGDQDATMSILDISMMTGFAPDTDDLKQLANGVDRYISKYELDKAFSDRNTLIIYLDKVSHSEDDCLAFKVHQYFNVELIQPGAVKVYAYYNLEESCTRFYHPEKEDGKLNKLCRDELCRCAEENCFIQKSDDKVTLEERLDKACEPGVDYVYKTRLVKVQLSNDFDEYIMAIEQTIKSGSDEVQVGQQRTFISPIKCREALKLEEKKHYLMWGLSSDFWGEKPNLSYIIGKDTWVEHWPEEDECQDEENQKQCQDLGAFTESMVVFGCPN
Chain of C3 convertase complex (P00751 260-764, chain 2 of 2): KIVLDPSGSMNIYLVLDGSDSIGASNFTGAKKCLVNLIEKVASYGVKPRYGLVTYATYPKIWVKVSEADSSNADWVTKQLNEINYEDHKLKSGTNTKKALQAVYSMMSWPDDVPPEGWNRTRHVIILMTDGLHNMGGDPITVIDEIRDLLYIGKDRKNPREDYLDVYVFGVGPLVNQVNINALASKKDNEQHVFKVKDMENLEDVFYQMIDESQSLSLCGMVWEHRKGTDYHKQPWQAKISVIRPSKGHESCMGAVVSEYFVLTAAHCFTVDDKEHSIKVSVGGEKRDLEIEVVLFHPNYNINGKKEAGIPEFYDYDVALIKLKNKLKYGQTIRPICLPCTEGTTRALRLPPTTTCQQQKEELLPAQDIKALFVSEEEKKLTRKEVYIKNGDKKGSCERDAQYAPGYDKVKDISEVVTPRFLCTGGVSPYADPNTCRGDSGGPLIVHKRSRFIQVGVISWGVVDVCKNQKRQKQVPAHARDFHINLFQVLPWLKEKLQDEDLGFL

Row | Binder | C3 convertase activity % of the control | C3 convertase activity IC50
1 | pCEP4-1NT7-9CT20 (other) EDCNELPPRRNTEILTGSWSDQTYPEGTQAIYKCRPGYRSLGNVIMVCRKGEWVALNPLRKCQKRPCGHPGDTPFGTFTLTGGNVFEYGVKAVYTCNEGYQLLGEINYRECDTDGWTNDIPICEVVKCLPVTAPENGKIVSSAMEPDREYHFGQAVRFVCNSGYKIEGDEEMHCSDDGFWSKEKPKCVEISCKSPDVINGSPISQKIIYKENERFQYKCNMGYEYSERGDAVCTESGWRPLPSCEEKSCDNPYIPNGDYSPLRIKHRTGDEITYQCRNGFYPATRGNTAKCTSTGWIPAPRCTLKPCDYPDIKHGGLYHENMRRPYFPVAVGKYYSYYCDEHFETPSGSYWDHIHCTQDGWSPAVPCLRKCYFPYLENGYNQNYGRKFVQGKSIDVACHPGYALPKAQTTVTCMENGWSPTPRCIRVKTGASGCDIPVFMNARTKNDFTWFKLNDTLDYECHDGYESNTGSTTGSIVCGYNGWSDLPICYERECELPKIDVHLVPDRKKDQYKVGEVLKFSCKPGFTIVGPNSVQCYHFGLSPDLPICKEQVQSCGPPPELLNGNVKEKTKEEYGHSEVVEYYCNPRFLMKGPNKIQCVDGEWTTLPVCIVEESTCGDIPELEHGWAQLSSPPYYYGDSVEFNCSESFTMIGHRSITCIHGVWTQLPQCVAIDKLKKCKSSNLIILEEHLKNKKEFDHNSNIRYRCRGKEGWIHTVCINGRWDPEVNCSMAQIQLCPPPPQIPNSHNMTTTLNYRDGEKVSVLCQENYLIQEGEEITCKDGRWQSIPLCVEKIPCSQPPQIEHGTINSSRSSQESYAHGTKLSYTCEGGFRISEENETTCYMGKWSSPPQCEGLPCKSPPEISHGVVAHMSDSYQYGEEVTYKCFEGFGIDGPAIAKCLGEKWSHPPSCIKTDCLSLPSFENAIPMGEKKDVYKAGEQVTYTCATYYKMDGASNVTCINSRWTGRPTCRDTSCVNPPTVQNAYIVSRQMSKYPSGERVRYQCRSPYEMFGDEEVMCLNGNWTEPPQCKDSTGKCGPPPPIDNGDITSFPLSVYAPASSVEYQCQNLYQLEGNKRITCRNGQWSEPPKCLHPCVISREIMENYNIALRWTAKQKLYSRTGESVEFVCKRGYRLSSRSHTLRTTCWDGKLEYPTCAKRGGSGHHHHHH | 156 % of the control | 0.252 µg/mL
2 | pCEP4-1NT7-10CT20 (other) EDCNELPPRRNTEILTGSWSDQTYPEGTQAIYKCRPGYRSLGNVIMVCRKGEWVALNPLRKCQKRPCGHPGDTPFGTFTLTGGNVFEYGVKAVYTCNEGYQLLGEINYRECDTDGWTNDIPICEVVKCLPVTAPENGKIVSSAMEPDREYHFGQAVRFVCNSGYKIEGDEEMHCSDDGFWSKEKPKCVEISCKSPDVINGSPISQKIIYKENERFQYKCNMGYEYSERGDAVCTESGWRPLPSCEEKSCDNPYIPNGDYSPLRIKHRTGDEITYQCRNGFYPATRGNTAKCTSTGWIPAPRCTLKPCDYPDIKHGGLYHENMRRPYFPVAVGKYYSYYCDEHFETPSGSYWDHIHCTQDGWSPAVPCLRKCYFPYLENGYNQNYGRKFVQGKSIDVACHPGYALPKAQTTVTCMENGWSPTPRCIRVKTGASGCELPKIDVHLVPDRKKDQYKVGEVLKFSCKPGFTIVGPNSVQCYHFGLSPDLPICKEQVQSCGPPPELLNGNVKEKTKEEYGHSEVVEYYCNPRFLMKGPNKIQCVDGEWTTLPVCIVEESTCGDIPELEHGWAQLSSPPYYYGDSVEFNCSESFTMIGHRSITCIHGVWTQLPQCVAIDKLKKCKSSNLIILEEHLKNKKEFDHNSNIRYRCRGKEGWIHTVCINGRWDPEVNCSMAQIQLCPPPPQIPNSHNMTTTLNYRDGEKVSVLCQENYLIQEGEEITCKDGRWQSIPLCVEKIPCSQPPQIEHGTINSSRSSQESYAHGTKLSYTCEGGFRISEENETTCYMGKWSSPPQCEGLPCKSPPEISHGVVAHMSDSYQYGEEVTYKCFEGFGIDGPAIAKCLGEKWSHPPSCIKTDCLSLPSFENAIPMGEKKDVYKAGEQVTYTCATYYKMDGASNVTCINSRWTGRPTCRDTSCVNPPTVQNAYIVSRQMSKYPSGERVRYQCRSPYEMFGDEEVMCLNGNWTEPPQCKDSTGKCGPPPPIDNGDITSFPLSVYAPASSVEYQCQNLYQLEGNKRITCRNGQWSEPPKCLHPCVISREIMENYNIALRWTAKQKLYSRTGESVEFVCKRGYRLSSRSHTLRTTCWDGKLEYPTCAKRGGSGHHHHHH | 59 % of the control | 0.602 µg/mL

Second part, the binder after the results:

Row | C3 convertase activity % of the control | C3 convertase activity IC50 | Binder
3 | 58 % of the control | 0.628 µg/mL | pCEP4-1NT8-15CT20 (other) EDCNELPPRRNTEILTGSWSDQTYPEGTQAIYKCRPGYRSLGNVIMVCRKGEWVALNPLRKCQKRPCGHPGDTPFGTFTLTGGNVFEYGVKAVYTCNEGYQLLGEINYRECDTDGWTNDIPICEVVKCLPVTAPENGKIVSSAMEPDREYHFGQAVRFVCNSGYKIEGDEEMHCSDDGFWSKEKPKCVEISCKSPDVINGSPISQKIIYKENERFQYKCNMGYEYSERGDAVCTESGWRPLPSCEEKSCDNPYIPNGDYSPLRIKHRTGDEITYQCRNGFYPATRGNTAKCTSTGWIPAPRCTLKPCDYPDIKHGGLYHENMRRPYFPVAVGKYYSYYCDEHFETPSGSYWDHIHCTQDGWSPAVPCLRKCYFPYLENGYNQNYGRKFVQGKSIDVACHPGYALPKAQTTVTCMENGWSPTPRCIRVKTCSKSSIDIENGFISESQYTYALKEKAKYQCKLGYVTADGETSGSITCGKDGWSAQPTCIKSGASGCSQPPQIEHGTINSSRSSQESYAHGTKLSYTCEGGFRISEENETTCYMGKWSSPPQCEGLPCKSPPEISHGVVAHMSDSYQYGEEVTYKCFEGFGIDGPAIAKCLGEKWSHPPSCIKTDCLSLPSFENAIPMGEKKDVYKAGEQVTYTCATYYKMDGASNVTCINSRWTGRPTCRDTSCVNPPTVQNAYIVSRQMSKYPSGERVRYQCRSPYEMFGDEEVMCLNGNWTEPPQCKDSTGKCGPPPPIDNGDITSFPLSVYAPASSVEYQCQNLYQLEGNKRITCRNGQWSEPPKCLHPCVISREIMENYNIALRWTAKQKLYSRTGESVEFVCKRGYRLSSRSHTLRTTCWDGKLEYPTCAKRGGSGHHHHHH
4 | 58 % of the control | 0.612 µg/mL | pCEP4-1NT10-11CT20 (other) EDCNELPPRRNTEILTGSWSDQTYPEGTQAIYKCRPGYRSLGNVIMVCRKGEWVALNPLRKCQKRPCGHPGDTPFGTFTLTGGNVFEYGVKAVYTCNEGYQLLGEINYRECDTDGWTNDIPICEVVKCLPVTAPENGKIVSSAMEPDREYHFGQAVRFVCNSGYKIEGDEEMHCSDDGFWSKEKPKCVEISCKSPDVINGSPISQKIIYKENERFQYKCNMGYEYSERGDAVCTESGWRPLPSCEEKSCDNPYIPNGDYSPLRIKHRTGDEITYQCRNGFYPATRGNTAKCTSTGWIPAPRCTLKPCDYPDIKHGGLYHENMRRPYFPVAVGKYYSYYCDEHFETPSGSYWDHIHCTQDGWSPAVPCLRKCYFPYLENGYNQNHGRKFVQGKSIDVACHPGYALPKAQTTVTCMENGWSPTPRCIRVKTCSKSSIDIENGFISESQYTYALKEKAKYQCKLGYVTADGETSGSITCGKDGWSAQPTCIKSCDIPVFMNARTKNDFTWFKLNDTLDYECHDGYESNTGSTTGSIVCGYNGWSDLPICYERECELPKIDVHLVPDRKKDQYKVGEVLKFSCKPGFTIVGPNSVQCYHFGLSPDLPICKEQVQSGASGCGPPPELLNGNVKEKTKEEYGHSEVVEYYCNPRFLMKGPNKIQCVDGEWTTLPVCIVEESTCGDIPELEHGWAQLSSPPYYYGDSVEFNCSESFTMIGHRSITCIHGVWTQLPQCVAIDKLKKCKSSNLIILEEHLKNKKEFDHNSNIRYRCRGKEGWIHTVCINGRWDPEVNCSMAQIQLCPPPPQIPNSHNMTTTLNYRDGEKVSVLCQENYLIQEGEEITCKDGRWQSIPLCVEKIPCSQPPQIEHGTINSSRSSQESYAHGTKLSYTCEGGFRISEENETTCYMGKWSSPPQCEGLPCKSPPEISHGVVAHMSDSYQYGEEVTYKCFEGFGIDGPAIAKCLGEKWSHPPSCIKTDCLSLPSFENAIPMGEKKDVYKAGEQVTYTCATYYKMDGASNVTCINSRWTGRPTCRDTSCVNPPTVQNAYIVSRQMSKYPSGERVRYQCRSPYEMFGDEEVMCLNGNWTEPPQCKDSTGKCGPPPPIDNGDITSFPLSVYAPASSVEYQCQNLYQLEGNKRITCRNGQWSEPPKCLHPCVISREIMENYNIALRWTAKQKLYSRTGESVEFVCKRGYRLSSRSHTLRTTCWDGKLEYPTCAKRGGSGHHHHHH
